Measured values from article PMC3257533.

Molecular target: paclitaxel-stabilized microtubules
Experiment: co-sedimentation

B1: MBP-Nsk1 (recombinant maltose-binding protein-Nsk1, wild type) (natural protein)
chain: MAYKLSLSAVEPLLIFPAAPFSTKKEKSTFQNNLISSDVFSSALKPLSPLKSLVADFSTHSNPSKDNQLISPPKINHREFLNEEKESDTQTRYLKQLINICNSPSKNHETSLSPSKSTIDNNERKLDNEIDNYKHDVKYSPYKGQGKTSNPSQGTTKCPGIFEEDNFFSVSPKRRKNLFEKYGKTDLGKPARVPSPKKSLSSTIKSPPSRVKLPTSILSKSPPLKVPNKNRSSTFSPLRTPTSSSKTFVIVDHSTPSPPSIRTKLEAFAPNSTFATQKRLRRLATLESSPALRSTLKSLQSKSSPVKLLKLKEEKAKIKNQLFKSEEEKDPVGKQKLPLESSLSPLDHSSAEKEMQKAPAKNKRRRTGSLETGLYPKESPTPSKKRSKRVLWSLKHIVSPGNREKHSLNSTPESIMKKDTKWPQNLAKNNINSEPNTPTKSNIDTGKAHSARAHKTRKNIQS
  Kd: 230 nM
